Data as given in patent US20230383265A1, “D-beta-HYDROXYBUTYRATE DEHYDROGENASES (BHBDhs) AND THEIR USE FOR KETONE MONITORING” (The University of North Carolina at Chapel Hill, priority 2022, published 2023).

T1: Thermus thermophilus BHBDh (TtBHBDh), wild type, SEQ ID NO: 3 (Thermus thermophilus, UniProt Q5SKF0)
T1 sequence (Q5SKF0 1-251): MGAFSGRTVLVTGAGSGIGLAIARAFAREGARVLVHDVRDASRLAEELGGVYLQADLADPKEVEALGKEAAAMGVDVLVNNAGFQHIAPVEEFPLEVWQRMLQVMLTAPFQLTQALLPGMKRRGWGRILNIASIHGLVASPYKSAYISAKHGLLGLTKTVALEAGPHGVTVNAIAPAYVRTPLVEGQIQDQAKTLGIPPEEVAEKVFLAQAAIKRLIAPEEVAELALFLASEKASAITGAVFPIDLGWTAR


What was measured:
[1] = biological target: T1, Thermus thermophilus BHBDh (TtBHBDh), wild type, SEQ ID NO: 3; assay: BHB concentration-dependent BHBDh activity of TtBHBDh (NADH detection, absorbance at 340 nm); format: biochemical; settings: 1 mM NAD+, 10 mM HEPES pH 7.8, 0 mM MgCl2, 0-50 mM BHB, room temperature; read-out: Km toward BHB
Experimental: The activity was measured using NADH detection via absorbance at 340 nm, at room temperature. The measurement was done in a solution with 1 mM NAD^+, 10 mM HEPES at pH 7.8, and 0 mM MgCl2·6 H2O, from 0-50 mM BHB.

[2] = substrate: C[C@@H](O)CC(=O)O; assay: NAD dependent BHB dehydrogenase activity of AfBHBDh; format: biochemical, Alcaligenes faecalis

Molecule	Km [1]	Km [2]	Vmax [2]
C[C@@H](O)CC(=O)O [BHB, R-3-hydroxybutyrate]	359 µM		
(Alcaligenes faecalis) (protein) MLKGKKAVVTGSTSGIGLAMATELAKAGADVVINGFGQPEDIERERSTLESKFGVKAYYLNADLSDAQATRDFIAKAAEALGGLDILVNNAGIQHTAPIEEFPVDKWNAIIALNLSAVFHGTAAALPIMQKQGWGRIINIASAHGLVASVNKSAYVAAKHGVVGLTKVTALENAGKGITCNAICPGWVRTPLVEKQIEAISQQKGIDIEAAARELLAEKQPSLQFVTPEQLGGAAVFLSSAAADQMTGTTLSLDGGWTAR		1130 µM	223 µmol/min/mg
